Test results taken from patent publication US20220280633A1.

Tested on: T1, fluorogenic substrate (R&D systems, cat no ES007), peptide YVADAPK between a 7-methoxycoumarin (Mca) group and a 2,4-dinitrophenyl (Dnp) group
T1 sequence: YVADAPK

## commercial ACE-2 from Sino Biological (cat no 10108H08H20)
  enzymatic activity assay using a fluorogenic substrate: All four samples appeared to have similar levels of activity
